The record followed here is the supplement of paper PMC9170038.

The data set concerns MS2 coat protein. The data set can be described thus: apparent KD of MS2 coat protein; designed switch direction (-1 OFF switch, 1 ON switch): -1; higher = weaker reporter binding. Put shortly: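 Transcription of designed RNA switches on Illumina chips was done by stalled E. coli RNA polymerase. SNAP-549-labelled MS2 coat protein was then titrated in doubling steps from 0.7 or 1.5 nM to 3 µM, with steps of 0.8–1.5 h at the lowest and 10–20 min at the highest concentration. The per-design median over clusters of curve-fitted normalised fluorescence is reported as apparent KD.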

The mark [1] stands for this setting: input ligand: microRNA oligo, concentration not stated.
Where [2] appears, read: Eterna round: R95, input ligand: microRNA oligo, concentration not stated.
The mark [3] stands for this setting: Eterna round: R95, input ligand: FMN 200 uM.
Where [4] appears, read: Eterna round: R95, input ligand: none.

For the sequence “GGCUUACAUGAGGAUCACCCAUGUCAGGAUAUAGAACGAUGGCGGAACGCCAUCGCCGCUAGAAGGGACCGGUG [Eternabot (Original) Solution 25] (Eterna round: R97, puzzle: Exclusion 1)”, the “apparent KD of MS2 coat protein” value runs as follows: (input ligand: FMN 200 uM) 142 nM; (input ligand: none) 78 nM.

Take “GGCUUGUAAGGAUAUGCGAAGGGAAGGAGAGGGACAGAGAAGCAGAAGGUACAUGAGGAUCACCCAUGUAAGGG [AK-MS2ROC-r4-exclusion4-7] (Eterna round: R97, puzzle: Exclusion 4)”: the “apparent KD of MS2 coat protein” value (input ligand: FMN 200 uM) amounted to 247 nM and the “apparent KD of MS2 coat protein” value (input ligand: none) stood at 94.9 nM.

On to “GGGAUGUCAGGAUAUGAUUAGCACGGCGGUAGCCGCGUUACUUAGAAGGGACAUGAGGAUCACCCAUGUACCGA [EX4 B.6] (Eterna round: R97, puzzle: Exclusion 4)”, for which the “apparent KD of MS2 coat protein” value was 18.6 nM (input ligand: FMN 200 uM) and 16.9 nM (input ligand: none).

In the case of “GGGCCCGGAGGAUAUACAUGAGGAUCACCCAUGUAGGGCCCGGGUAUUCCCGGGCCCUGUAGAAGGUUGGGCCC [-44, -41.2 kcal, A 19%, 0,5c] (Eterna round: R97, puzzle: Exclusion 3)”, the “apparent KD of MS2 coat protein” value (input ligand: FMN 200 uM) was determined as 17.8 nM and the “apparent KD of MS2 coat protein” value (input ligand: none) was found to be 15.8 nM.

Turning to “GGGCCGGCCGGAGGAUAUGCGGCCCGGCCGGCCGGUGGGCCGGCCGGGACAUGAGGAUCACCCAUGUAGAAGGCCGGCCGGCCC [low energy, MS2 in another position, A 14%] (Eterna round: R96, puzzle: Exclusion NG 2)”, the “apparent KD of MS2 coat protein” value turned out to be 18.8 nM (input ligand: FMN 200 uM), 13.7 nM under setting [1] and 15.9 nM (input ligand: none).

Consider “GGGCGUGAAGGAUAUACAUGAGGAUCACCCAUGUGGGAGGAGAGUGGUGAGGAGGCUGGUAGAAGGUCAGGAUG [JR_Exclusion3_Sub007] (puzzle: Exclusion 3)”, for which, under setting [2], the “apparent KD of MS2 coat protein” value was 42.6 nM.

Take “GGGUAACAUGAGGAUCACCCAUGUGAGGAUAUUCUAGGGAUGGAAGCUCGGCCGGCCAGGAGAAGGUACUAAAG [Janelle Amethyst 18 Mod 20 - Jieux - Exclusion 1] (Eterna round: R96, puzzle: Exclusion 1)”: the “apparent KD of MS2 coat protein” value is, setting by setting: (input ligand: FMN 200 uM) 62 nM; under setting [1], 29.6 nM; (input ligand: none) 48.2 nM.

“GGGUAAUUCGUGAGGAUAUCGCUAAGCACUUUGGCCGAGAAGGCACAUGAGGAUCACCCAUGUAAUACGGCACG [Eternabot (L1) Solution 92] (Eterna round: R97, puzzle: Brourd's mod of Exclusion 4)”: the “apparent KD of MS2 coat protein” value (input ligand: FMN 200 uM) was determined as 70.9 nM and the “apparent KD of MS2 coat protein” value (input ligand: none) came to 19.1 nM.

Turning to “GGGUAGUGAGGAUAUCGUUGUUAGGAGGAGUAGGUAGGAGGCGAGAAGGCACAUGAGGAUCACCCAUGUAUGAA [JR_Exclu4_Sub066] (Eterna round: R96, puzzle: Exclusion 4)”, the “apparent KD of MS2 coat protein” value reads like this: (input ligand: FMN 200 uM) 34.9 nM; under setting [1], 26.2 nM; (input ligand: none) 32 nM.

With “GGGUAGUGAGGAUAUCGUUGUUAGGAGGAGUAGGUAGGAGGCGAGAAGGCACAUGAGGAUCACCCAUGUAUGAA [JR_Exclu4_Sub066] (puzzle: Exclusion 4)”, the “apparent KD of MS2 coat protein” value under setting [2] was 23.5 nM.

Consider “GGGUGCAGGCUGAGGUCCUACAUGAGGAUCACCCAUGUGGUCCGGUGGCGUGGGUCGCCGGACUUGGCUCGUCUUGU [salish99_S_TOV1_R5_013] (Eterna round: R97, puzzle: Sensor, turn-off variant 1)”, for which the “apparent KD of MS2 coat protein” value runs as follows: (input ligand: FMN 200 uM) 39.2 nM; (input ligand: none) 45.8 nM.

Take “GGUACUAACACGAAAGUGUUAGUACAAUAAGCUUGUGAAACAUGAGGAUCACCCAUGUCCUCAUAAGCUCGUCUUAG [salish99_TOv2_r3_005] (puzzle: Sensor v3, turn-off variant 2)”: the “apparent KD of MS2 coat protein” value was 13.4 nM under setting [3], 392 nM under setting [2] and 12.3 nM under setting [4].

As to “GGUACUCAAAGAGUACCAAUACGAACAUGAGGAUCACCCAUGUAGGAUAUGCUACUCAAAGAGUAGCAGAAGGAUAUGAUCCCU [Far Half Aptamer v12] (Eterna round: R96, puzzle: Exclusion NG 3)”, the “apparent KD of MS2 coat protein” value reads like this: (input ligand: FMN 200 uM) 211 nM; under setting [1], 99.6 nM; (input ligand: none) 126 nM.

“GGUAGAGAGCAGGAUAUCUUGGGUAAGUAUCGUAGAGAAGGGCUCACAUGAGGAUCACCCAUGUGGUCCUAGAU [JL Dibiri mod 04] (puzzle: Exclusion 6)”: the “apparent KD of MS2 coat protein” value under setting [2] was determined as 11.8 nM.

Consider “GGUAUACAUGAGGAUCACCCAUGUCAGGAUAUGUAUGCAUAUGCCGAAAGGCAUAUGCUCAGAAGGGACUAUAU [AK-MS2ROC-r4-exclusion1-4.0] (Eterna round: R97, puzzle: Exclusion 1)”, for which the “apparent KD of MS2 coat protein” value (input ligand: FMN 200 uM) is 42.4 nM and the “apparent KD of MS2 coat protein” value (input ligand: none) came out at 32 nM.

On to “GGUCAGAUGGUAGGAUAUCCAUAUCGAGUGACUCUUUCAUAACAUGAGGAUCACCCAUGUCGGUGGGAGAAGGGCCGUACGGCG [salish99_ExNG02_R04_016] (Eterna round: R96, puzzle: Exclusion NG 2)”, for which the “apparent KD of MS2 coat protein” value (input ligand: FMN 200 uM) came to 38.9 nM, the “apparent KD of MS2 coat protein” value under setting [1] was found to be 23.3 nM and the “apparent KD of MS2 coat protein” value (input ligand: none) is 36.6 nM.

Regarding “GGUCAUCAAGUCAGGAUAUCGUCUAAUCAAUCAGGCGAGAAGGGACAUGAGGAUCACCCAUGUCGACUCAUCAG [Ex4 #6] (Eterna round: R97, puzzle: Brourd's mod of Exclusion 4)”, the “apparent KD of MS2 coat protein” value reads like this: (input ligand: FMN 200 uM) 130 nM; (input ligand: none) 33.5 nM.

With “GGUCCACAUGAGGAUCACCCAUGUUAGGAUAUCUCCCGCCUCCUCACUGGAGACGGACAGAGAAGGAACAUCAA [Vetibele] (Eterna round: R96, puzzle: Exclusion 1)”, the “apparent KD of MS2 coat protein” value worked out at 104 nM (input ligand: FMN 200 uM), 20.5 nM under setting [1] and 24.3 nM (input ligand: none).

Take “GGUCCACAUGAGGAUCACCCAUGUUAGGAUAUCUCCCGCCUCCUCACUGGAGACGGACAGAGAAGGAACAUCAA [Vetibele] (puzzle: Exclusion 1)”: the “apparent KD of MS2 coat protein” value under setting [2] came to 23.7 nM.

As for “GGUCGACAUGAGGAUCACCCAUGUCAGGAUAUCGUCACUGGAGCUUCGGCUCCAGUGACGAGAAGGGAUAUAAU [E1/15-A1] (Eterna round: R97, puzzle: Exclusion 1)”, the “apparent KD of MS2 coat protein” value reads like this: (input ligand: FMN 200 uM) 24.6 nM; (input ligand: none) 36.9 nM.

Turning to “GGUCUACAUGAGGAUCACCCAUGUCAGGAUAUCGUGUGUUUUUUUUCGGCCGCGCGUGCGAGAAGGGACGUCUU (puzzle: Exclusion 1)”, under setting [2], the “apparent KD of MS2 coat protein” value stood at 16.6 nM.

Turning to “GGUGAGAGCAAGGAUAUGCAGAAGAGAGAAAGAGCAGAAGGUGCUACAUGAGGAUCACCCAUGUUGGAUGUGUU [JR_E6_Sub014] (puzzle: Exclusion 6)”, the “apparent KD of MS2 coat protein” value by setting is: under setting [3], 46.3 nM; under setting [2], 35.6 nM; under setting [4], 39.3 nM.

Take “GGUGCGUAUGUGAGGAUAUGCUGGUCCUUGGAUCAGCAGAAGGCACAUGAGGAUCACCCAUGUGGUGUCGUACA [salish99_Bmod_Ex4_014] (puzzle: Brourd's mod of Exclusion 4)”: under setting [2], the “apparent KD of MS2 coat protein” value worked out at 255 nM.

Turning to “GGUGCGUAUGUGAGGAUAUGCUGGUCCUUGGAUCGGCAGAAGGCACAUGAGGAUCACCCAUGUGGUGUCGUACC [salish99_Bmod_Ex4_023] (puzzle: Brourd's mod of Exclusion 4)”, the “apparent KD of MS2 coat protein” value under setting [2] turned out to be 165 nM.

Regarding “GGUGCGUUUGUGAGGAUAUGCUGGUCCUUGGAUCAGCAGAAGGCACAUGAGGAUCACCCAUGUGGUGUCCGUCC [salish99_Bmod_Ex4_039] (puzzle: Brourd's mod of Exclusion 4)”, the “apparent KD of MS2 coat protein” value under setting [2] was 180 nM.

“GGUGCGUUUGUGAGGAUAUGCUGGUCCUUGGCUCAGCAGAAGGCACAUGAGGAUCACCCAUGUGGUGUCGUACC [salish99_Bmod_Ex4_033] (puzzle: Brourd's mod of Exclusion 4)”: the “apparent KD of MS2 coat protein” value under setting [2] was determined as 239 nM.

Turning to “GGUGCGUUUGUGAGGAUAUGCUGGUCCUUGGUUCGGCAGAAGGCACAUGAGGAUCACCCAUGUGGUGUCGUACC [salish99_Bmod_Ex4_043] (puzzle: Brourd's mod of Exclusion 4)”, the “apparent KD of MS2 coat protein” value under setting [2] worked out at 15.7 nM.

On to “GGUGGACAUGAGGAUCACCCAUGUGAGGAUAUCGGCCGGCUAGUGGCGGCUGGCUUCUCGAGAAGGCGCAUAGU [Exclusion 1 V77] (puzzle: Exclusion 1)”, for which, under setting [2], the “apparent KD of MS2 coat protein” value was determined as 37.3 nM.

Turning to “GGUGGACAUGAGGAUCACCCAUGUGAGGAUAUCGGCCGGUUCGCGGUGGCUGGCGUCUCGAGAAGGCGCAUAGU [Exclusion 1 V71] (puzzle: Exclusion 1)”, the “apparent KD of MS2 coat protein” value under setting [2] came out at 28.7 nM.

As to “GGUGGACAUGAGGAUCACCCAUGUGAGGAUAUCGGCUAUCUACUCGCUGACGGCUGCUCGAGAAGGCACAUUGU [Exclusion 1 V91] (puzzle: Exclusion 1)”, the “apparent KD of MS2 coat protein” value under setting [2] was found to be 54.6 nM.

“GGUGGACAUGAGGAUCACCCAUGUGAGGAUAUCGGCUAUCUACUCGCUGACGGUUGCUCGAGAAGGCACAUUGU [Exclusion 1 V92] (puzzle: Exclusion 1)”: the “apparent KD of MS2 coat protein” value under setting [2] is 90.9 nM.

For the sequence “GGUGGACAUGAGGAUCACCCAUGUGAGGAUAUCGGCUGGUACGUGUUGGCUGGCAUCUCGAGAAGGCACAUAGG [Exclusion 1 V60] (puzzle: Exclusion 1)”, under setting [2], the “apparent KD of MS2 coat protein” value was 102 nM.

Regarding “GGUGGACAUGAGGAUCACCCAUGUGAGGAUAUCGGCUGGUGCGUGGUGGCUGGCAUCUCGAGAAGGCACAUAGU [Exclusion 1 V67] (puzzle: Exclusion 1)”, the “apparent KD of MS2 coat protein” value under setting [2] worked out at 70.5 nM.

Take “GGUGUGGCAGGAUAUACAUCGAAGGGUGCAAAGGGCUCGGCACAUGAGGAUCACCCAUGUAGAAGGGCCUACCA [Beated] (Eterna round: R96, puzzle: Exclusion 2)”: the “apparent KD of MS2 coat protein” value was 25.3 nM (input ligand: FMN 200 uM), 13.6 nM under setting [1] and 15.6 nM (input ligand: none).
